Measured values taken from patent publication US11427637B2, “Methods of treating PD-L1 expressing cancer” (Mayo Foundation for Medical Education and Research, priority 2016, dated 2022).
pKd: −log10 of the molar value.

Key:
ABX = molecular target: T1, ABX (Homo sapiens, UniProt P02768); assay: Biolayer interferometry (BLItz) binding of atezolizumab to ABX; settings: biotinylated atezolizumab on streptavidin probe; ABX 100, 500, 1000 μg/mL in 1×PBS; read-out: Kd (binding affinity between atezolizumab and ABX)
T1 construct: purchased Celgene Corp
Experimental: To determine whether atezolizumab and ABX are capable of interacting to form nanoparticle complexes, Biolayer interferometry (BLItz) (Forte Bioscience) was performed using streptavidin probes. 100 ug/ml of biotinylated atezolizumab in 1×PBS was bound to the streptavidin probe. After washing unbound atezolizumab from the probe, the antibody-bound probe was exposed to ABX at concentrations of 100, 500, 1000 μg/mL in 1×PBS. An antibody probe exposed to PBS was used as background and background was subtracted. BLItz software was used to calculate dissociation constants (FIG. 1).

[1] = test system: PD-L1 positive C8161 melanoma tumor cells; assay: In vivo efficacy, C8161 melanoma tumors in athymic nude mice; settings: one IV tail vein injection; atezolizumab 18 mg/kg, ABX 45 mg/kg, AA130 = 18 mg/kg atezolizumab and 45 mg/kg ABX
Experimental: Athymic nude mice (Harlan Sprague Dawley) were injected with 2×10^6 PD-L1 positive C8161 melanoma tumor cells. The tumors were allowed to grow until about 600 mm^3 and were treated by 100 μl IV tail vein injection with saline, atezolizumab alone (18 mg/kg), ABX alone (45 mg/kg) and AA130 (18 mg/kg atezolizumab and 45 mg/kg ABX) one time (FIGS. 5A-5D). Tumor growth was monitored 3 times/week. Tumor size was calculated with the equation: (length×width^2)/2.
Kaplan Meier curves were generated using Graph Pad software. The median survival for each group was 14, 13, 16, and 21.5 days for saline, atezolizumab, ABX and AA130, respectively. Survival differences between AA130 and all other groups were significant with p-values of 0.0008 for saline, 0.0015 for atezolizumab, and 0.0113 for Abraxane.

## atezolizumab: fully humanized, Fc-modified monoclonal antibody of IgG1 isotype against PD-L1
ABX
  pKd: 8.84
[1]
  median survival: 13 days
